The values that follow come from JP2018153172A (dated 2018).

Experiment [1] addresses T1, 可溶性ヒトgp130受容体 (soluble human gp130 receptor, extracellular region of SEQ ID NO 1 with six histidines) (human, UniProt P40189 23-619).
T1 construct: Secreted from CHO DG44 cells and purified on HisTrap; no cleavage site is stated; also called 可溶性ヒトgp130受容体タンパク質; ヒト可溶性gp130受容体
T1 sequence: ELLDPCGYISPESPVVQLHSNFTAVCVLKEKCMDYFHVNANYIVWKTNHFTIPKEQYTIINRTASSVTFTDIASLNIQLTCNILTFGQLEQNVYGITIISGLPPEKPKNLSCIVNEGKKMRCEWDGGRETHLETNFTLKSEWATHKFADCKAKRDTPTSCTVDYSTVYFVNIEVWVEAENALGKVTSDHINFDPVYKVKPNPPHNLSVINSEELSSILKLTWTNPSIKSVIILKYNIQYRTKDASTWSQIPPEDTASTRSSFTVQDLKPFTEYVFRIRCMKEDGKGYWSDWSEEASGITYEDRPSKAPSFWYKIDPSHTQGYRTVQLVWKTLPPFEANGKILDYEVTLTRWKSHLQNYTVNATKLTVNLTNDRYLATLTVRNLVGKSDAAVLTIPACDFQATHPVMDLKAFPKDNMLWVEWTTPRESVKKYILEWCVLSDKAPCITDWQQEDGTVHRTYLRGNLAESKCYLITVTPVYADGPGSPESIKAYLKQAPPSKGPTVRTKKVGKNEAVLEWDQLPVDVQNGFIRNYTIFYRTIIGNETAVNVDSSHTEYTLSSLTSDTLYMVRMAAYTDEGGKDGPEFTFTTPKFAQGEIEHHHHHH
The experiment is described as follows: SPR, Biacore T200, gp130 on CM5 (4023 RU), COS1 supernatant as analyte, off-rate screening. In general terms: Surface plasmon resonance follows binding to a sensor surface in real time, without labels.

In experiment [2] the target is T1, 可溶性ヒトgp130受容体 (soluble human gp130 …). The experiment is described as follows: SPR, Biacore T200, gp130 amine-coupled on CM5 (389 RU), antibody as analyte.
Experiment [3] addresses T2, SEQ ID NO 127 (15-residue oligopeptide of human gp130) (human, also: linker added for immobilisation).
T2 construct: also called 配列番号127
T2 peptide: VQDLKPFTEYVFRIR
The experiment is described as follows: peptide microarray, antibody at 10 ug/mL, fluorescence.

For experiment [4], the target named is T3, SEQ ID NO 128 (15-residue oligopeptide of human gp130) (human, also: linker added for immobilisation).
T3 construct: also called 配列番号128
T3 peptide: DLKPFTEYVFRIRCM
The experiment is described as above.

The target in experiment [5] is T4, SEQ ID NO 108 (15-residue oligopeptide of human gp130) (human, also: linker added for immobilisation).
T4 construct: also called 配列番号108
T4 peptide: SIKSVIILKYNIQYR
Described as above.

In experiment [6] the target is T5, SEQ ID NO 109 (15-residue oligopeptide of human gp130) (human, also: linker added for immobilisation).
T5 construct: also called 配列番号109
T5 peptide: KSVIILKYNIQYRTK
Described as above.

Experiment [7] has as its target T6, SEQ ID NO 110 (15-residue oligopeptide of human gp130) (human, also: linker added for immobilisation).
T6 construct: also called 配列番号110
T6 peptide: VIILKYNIQYRTKDA
The description is as above.

The target in experiment [8] is T1, 可溶性ヒトgp130受容体 (soluble human gp130 …). In words: ELISA, immobilised soluble human gp130, recombinant antibody from COS1 cells. (An ELISA detects its analyte on a solid surface through an enzyme-linked reagent.)

Ends that are not written are not given here.

B1: ヒト化抗体A (H鎖 pFU-AH2, L鎖 AL−4F1) (antibody, V domains shown)
VH: QVQLQQPGAELVQPGTSVRLSCKASGYTFTDYNMDWVKQRPGQGLEWIGDINSHSGGIIYNQKFKDKATLTVDKSSSTAYMQLSSLTSEDSAVYYCTRTYYVYGHFFDYWGQGTLVTVSA
VL: DIQMTQSPSSLSASVGDRVTITCNVSSSVTSMYWYQQKQGKSPQLLVYLTSNLASGVPSRFSGSGSGTQFSLKINNLQPEDFGSYYCQQWSTNPLTFGQGTKLDLKR
notes: also called AL-L4F1 with AH2
On to B1, for which the binding result in experiment [1] is listed as “binds”.

B2: ヒト化抗体A (H鎖 pFU-AH2, L鎖 AL−14A10) (antibody, V domains shown)
VH: QVQLQQPGAELVQPGTSVRLSCKASGYTFTDYNMDWVKQRPGQGLEWIGDINSHSGGIIYNQKFKDKATLTVDKSSSTAYMQLSSLTSEDSAVYYCTRTYYVYGHFFDYWGQGTLVTVSA
VL: DIQMTQSPSTLSASIGDRVTITCNVSSSVTSMYWYQQKPGKAPKLLIYLTSNLASGVPSRFSGSGSGTDFTLTISSLQPEDFATYYCQQWSTNPLTFGQGTKLEIKR
notes: also called AL-L14A10 with AH2
Consider B2, for which the binding result in experiment [1] was “binds”.

B3: ヒト化抗体AH2−L13H10 (antibody, V domains shown)
VH: QVQLQQPGAELVQPGTSVRLSCKASGYTFTDYNMDWVKQRPGQGLEWIGDINSHSGGIIYNQKFKDKATLTVDKSSSTAYMQLSSLTSEDSAVYYCTRTYYVYGHFFDYWGQGTLVTVSA
VL: EIVLTQSPDFQSVTPKEKVTITCNVSSSVTSMYWYQQKPGKAPKLLVYLTSNLASGVPSRFSGSGSGTDFTLTINSLEAEDAATYYCQQWSTNPLTFGQGTKLEIKR
notes: also called AH2−13H10; AH2 with AL-13H10 (AL-L13H10)
In the case of B3, in experiment [2], the Kd (usually a measure of binding affinity in units of concentration) came to 2.27 nM; the koff (usually a measure of how fast the partners let go of each other) stood at 0.000203 s⁻¹; the kon (in general, the rate constant with which the complex forms) is 89300 M⁻¹ s⁻¹.

B4: ヒト化抗体A (H鎖 pFU-AH2, L鎖 AL−6E6) (antibody, V domains shown)
VH: QVQLQQPGAELVQPGTSVRLSCKASGYTFTDYNMDWVKQRPGQGLEWIGDINSHSGGIIYNQKFKDKATLTVDKSSSTAYMQLSSLTSEDSAVYYCTRTYYVYGHFFDYWGQGTLVTVSA
VL: ELVLTQSPGTLSLSAGERATLSCNVSSSVTSMYWYQQKPGKAPKLLIYLTSNLASGVPSRFSGSGSGTDYTFTISSLQPEDIATYYCQQWSTNPLTFGQGTKVEIKR
notes: also called AL-L6E6 with AH2
Consider B4, for which the binding result in experiment [1] is given as “binds”.

B5: 抗体C (antibody C, mouse anti-human gp130 monoclonal antibody) (antibody, V domains shown)
VH: EVQVVESGGDLLLPGGSLKLSCAVSGFTFNAYGMSWVRQTPDKRLELVATINSNGDSTYYPDSVKGRFTISRDNAKHTLYLQMSSLKSEDTAMYYCANFYGGFPYWGQGTLVTVSA
VL: VIVLTQSHKFMSTSVGDRVSITCKASQDVDTAVAWYQQKVGHSPKLLIYWAVTRHTGVPDRFTGSGSGTDFTLTISNVQSEDLADYFCQQYSSYPYTFGGGTKLEIKR
notes: Mouse IgG2a, kappa; Entries are the polypeptides as encoded by the cDNA (leader probably included)
On to B5, for which the binding result in experiment [3], in experiment [4], in experiment [5], in experiment [6], in experiment [7] and in experiment [8] was “binds” throughout.

B6: 抗体B (antibody B, mouse anti-human gp130 monoclonal antibody) (antibody, V domains shown)
VH: EVQLQQSGAELVKPGASVKLSCTASGFNIRDTYMHWVKQRPEQGLEWIGRIDPANGNTKYDPKFQDKATMTADTSSNTAYLQLSSLTSEDTAVYYCARRGNYFYAMDYWGQGTSVTVSS
VL: DIVLTQSPASLAVSLGQRATISCRASESVEYYGTSLMQWYQQKPGQPPKLLIYVASNVESGVPARFSGSGSGTDFSLNIHPVEEDDIAMYFCQQSRKVPWTFGGGTKLEIKR
notes: Mouse IgG2b, kappa; Entries are the polypeptides as encoded by the cDNA (leader probably included)
Regarding B6, the binding result in experiment [3], in experiment [4], in experiment [5], in experiment [6], in experiment [7] and in experiment [8] was “binds” throughout.
